B1: Palm-Ile-Ser-(d)Leu-Leu-Asp-(d)Ala-Gln-Ser-NH2 (peptide)
peptide: ISLLDAQS
HELM: PEPTIDE1{[CCCCCCCCCCCCCCCC(=O)[*:2]].I.S.[dL].L.D.[dA].Q.S.[am]}$$$$V2.0
SMILES: CCCCCCCCCCCCCCCC(=O)N[C@H](C(=O)N[C@@H](CO)C(=O)N[C@H](CC(C)C)C(=O)N[C@@H](CC(C)C)C(=O)N[C@@H](CC(=O)O)C(=O)N[C@H](C)C(=O)N[C@@H](CCC(N)=O)C(=O)N[C@@H](CO)C(N)=O)[C@@H](C)CC
B2: Ac-Ile-Ser-(d)Leu-Leu-Asp-(d)Ala-Gln-Ser-NH2 (peptide)
peptide: ISLLDAQS
HELM: PEPTIDE1{[ac].I.S.[dL].L.D.[dA].Q.S.[am]}$$$$V2.0
SMILES: CC[C@H](C)[C@H](NC(C)=O)C(=O)N[C@@H](CO)C(=O)N[C@H](CC(C)C)C(=O)N[C@@H](CC(C)C)C(=O)N[C@@H](CC(=O)O)C(=O)N[C@H](C)C(=O)N[C@@H](CCC(N)=O)C(=O)N[C@@H](CO)C(N)=O
B3: Palm-Ile-Ser-Leu-Leu-Asp-Ala-Gln-Ser-NH2 (peptide)
peptide: ISLLDAQS
HELM: PEPTIDE1{[CCCCCCCCCCCCCCCC(=O)[*:2]].I.S.L.L.D.A.Q.S.[am]}$$$$V2.0
SMILES: CCCCCCCCCCCCCCCC(=O)N[C@H](C(=O)N[C@@H](CO)C(=O)N[C@@H](CC(C)C)C(=O)N[C@@H](CC(C)C)C(=O)N[C@@H](CC(=O)O)C(=O)N[C@@H](C)C(=O)N[C@@H](CCC(N)=O)C(=O)N[C@@H](CO)C(N)=O)[C@@H](C)CC
B4: Ac-Ile-Ser-Leu-Leu-Asp-(d)Ala-Gln-Ser-NH2 (peptide)
peptide: ISLLDAQS
HELM: PEPTIDE1{[ac].I.S.L.L.D.[dA].Q.S.[am]}$$$$V2.0
SMILES: CC[C@H](C)[C@H](NC(C)=O)C(=O)N[C@@H](CO)C(=O)N[C@@H](CC(C)C)C(=O)N[C@@H](CC(C)C)C(=O)N[C@@H](CC(=O)O)C(=O)N[C@H](C)C(=O)N[C@@H](CCC(N)=O)C(=O)N[C@@H](CO)C(N)=O
B5: Palm-Ile-Ser-Leu-Leu-Asp-(d)Ala-Gln-Ser-NH2 (peptide)
peptide: ISLLDAQS
HELM: PEPTIDE1{[CCCCCCCCCCCCCCCC(=O)[*:2]].I.S.L.L.D.[dA].Q.S.[am]}$$$$V2.0
SMILES: CCCCCCCCCCCCCCCC(=O)N[C@H](C(=O)N[C@@H](CO)C(=O)N[C@@H](CC(C)C)C(=O)N[C@@H](CC(C)C)C(=O)N[C@@H](CC(=O)O)C(=O)N[C@H](C)C(=O)N[C@@H](CCC(N)=O)C(=O)N[C@@H](CO)C(N)=O)[C@@H](C)CC
B6: Pamitoyl-Ser-Tyr-Ser-Nle-Glu-His-DPhe-Arg-(3-amino-3-(1-naphthyl) propionic acid)-Gly-Lys-DPro-Val-NH-(CH2)3-(OCH2CH2)2-CH2-NH2, coupled to capsules (peptide)
peptide: SYSXEHFRXGKPV
modifications: N-terminal palmitoyl; Nle at 4 (X); D-Phe at 7; 3-amino-3-(1-naphthyl) propionic acid at 9 (X); D-Pro at 12; C-terminal NH-(CH2)3-(OCH2CH2)2-CH2-NH2
notes: Coupled to the outer surface of fluorescent polymer capsules in the assay; also called peptide of formula (I), AA1 = 3-amino-3-(1-naphthyl) propionic acid
B7: Pamitoyl-Ser-Tyr-Ser-Nle-Glu-His-DPhe-Arg-(5-hydroxytryptophan)-Gly-Lys-DPro-Val-NH-(CH2)3-(OCH2CH2)2-CH2-NH2, coupled to capsules (peptide)
peptide: SYSXEHFRXGKPV
modifications: N-terminal palmitoyl; Nle at 4 (X); D-Phe at 7; 5-hydroxytryptophan at 9 (X); D-Pro at 12; C-terminal NH-(CH2)3-(OCH2CH2)2-CH2-NH2
notes: Coupled to the outer surface of fluorescent polymer capsules in the assay; also called peptide of formula (I), AA1 = 5-hydroxytryptophan
B8: Pamitoyl-Ser-Tyr-Ser-Nle-Glu-His-DPhe-Arg-(3-amino-3-(biphenyl) propionic acid)-Gly-Lys-DPro-Val-NH-(CH2)3-(OCH2CH2)2-CH2-NH2, coupled to capsules (peptide)
peptide: SYSXEHFRXGKPV
modifications: N-terminal palmitoyl; Nle at 4 (X); D-Phe at 7; 3-amino-3-(biphenyl) propionic acid at 9 (X); D-Pro at 12; C-terminal NH-(CH2)3-(OCH2CH2)2-CH2-NH2
notes: Coupled to the outer surface of fluorescent polymer capsules in the assay; also called peptide of formula (I), AA1 = 3-amino-3-(biphenyl) propionic acid
B9: Pamitoyl-Ser-Tyr-Ser-Nle-Glu-His-DPhe-Arg-His-Gly-Lys-DPro-Val-NH-(CH2)3-(OCH2CH2)2-CH2-NH2, coupled to capsules (peptide)
peptide: SYSXEHFRHGKPV
modifications: N-terminal palmitoyl; Nle at 4 (X); D-Phe at 7; D-Pro at 12; C-terminal NH-(CH2)3-(OCH2CH2)2-CH2-NH2
notes: Coupled to the outer surface of fluorescent polymer capsules in the assay; Stereochemistry of the residue at 9 is not specified; also called peptide of formula (I), AA1 = Histidine
B10: Pamitoyl-Ser-Tyr-Ser-Nle-Glu-His-DPhe-Arg-Phe-Gly-Lys-DPro-Val-NH-(CH2)3-(OCH2CH2)2-CH2-NH2, coupled to capsules (peptide)
peptide: SYSXEHFRFGKPV
modifications: N-terminal palmitoyl; Nle at 4 (X); D-Phe at 7; D-Pro at 12; C-terminal NH-(CH2)3-(OCH2CH2)2-CH2-NH2
notes: Coupled to the outer surface of fluorescent polymer capsules in the assay; Stereochemistry of the residue at 9 is not specified; also called peptide of formula (I), AA1 = Phenylalanine
B11: Pamitoyl-Ser-Tyr-Ser-Nle-Glu-His-DPhe-Arg-Tyr-Gly-Lys-DPro-Val-NH-(CH2)3-(OCH2CH2)2-CH2-NH2, coupled to capsules (peptide)
peptide: SYSXEHFRYGKPV
modifications: N-terminal palmitoyl; Nle at 4 (X); D-Phe at 7; D-Pro at 12; C-terminal NH-(CH2)3-(OCH2CH2)2-CH2-NH2
notes: Coupled to the outer surface of fluorescent polymer capsules in the assay; Stereochemistry of the residue at 9 is not specified; also called peptide of formula (I), AA1 = Tyrosine
B12: Pamitoyl-Ser-Tyr-Ser-Nle-Glu-His-DPhe-Arg-(3-(2-Naphthyl)-D-alanine)-Gly-Lys-DPro-Val-NH-(CH2)3-(OCH2CH2)2-CH2-NH2, coupled to capsules (peptide)
peptide: SYSXEHFRXGKPV
modifications: N-terminal palmitoyl; Nle at 4 (X); D-Phe at 7; 3-(2-Naphthyl)-D-alanine at 9 (X); D-Pro at 12; C-terminal NH-(CH2)3-(OCH2CH2)2-CH2-NH2
notes: Coupled to the outer surface of fluorescent polymer capsules in the assay; also called peptide of formula (I), AA1 = 3-(2-Naphthyl)-D-alanine
B13: Pamitoyl-Ser-Tyr-Ser-Nle-Glu-His-DPhe-Arg-(L-3,4-dihydroxyphenylalanine)-Gly-Lys-DPro-Val-NH-(CH2)3-(OCH2CH2)2-CH2-NH2, coupled to capsules (peptide)
peptide: SYSXEHFRXGKPV
modifications: N-terminal palmitoyl; Nle at 4 (X); D-Phe at 7; L-3,4-dihydroxyphenylalanine at 9 (X); D-Pro at 12; C-terminal NH-(CH2)3-(OCH2CH2)2-CH2-NH2
notes: Coupled to the outer surface of fluorescent polymer capsules in the assay; also called peptide of formula (I), AA1 = L-3,4-dihydroxyphenylalanine

biological target: Mushroom Tyrosinase (mushroom); experiment: cell-based or functional assay

Binder	% INHIBITION TYROSINASE [%]
B1	48
B2	40
Ac-ISLLDAQS-NH2 [Ac-Ile-Ser-Leu-Leu-Asp-Ala-Gln-Ser-NH2]	28
B3	39
B4	31
B5	42

biological target: T1, Melanocortin receptor 1 (MC1R) on melanocytes (human, UniProt Q01726 1-317); experiment: flow cytometry, cell-associated fluorescence of peptide-targeted capsules (50 µg/mL, 37° C., 3 h) on melanocytes in a mixed cell population
T1 construct: whole, on cells; also called MC1 receptor; MCR1 receptors on the melanocyte
T1 sequence (Q01726 whole entry): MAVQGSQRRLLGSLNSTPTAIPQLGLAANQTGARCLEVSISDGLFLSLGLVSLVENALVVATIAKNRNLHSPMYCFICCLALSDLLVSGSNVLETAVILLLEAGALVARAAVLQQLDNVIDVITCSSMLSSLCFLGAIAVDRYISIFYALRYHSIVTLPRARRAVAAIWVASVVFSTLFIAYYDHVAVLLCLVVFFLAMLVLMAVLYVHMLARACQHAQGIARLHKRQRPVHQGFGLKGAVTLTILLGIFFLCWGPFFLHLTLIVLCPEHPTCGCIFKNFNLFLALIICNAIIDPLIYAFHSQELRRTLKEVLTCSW
Procedure: Distinct types of cells were incubated with the capsules of the invention (50 μg/mL) which have been targeted with different peptides of formula (Ia) or non-targeted capsules (50 μg/mL) at 37° C. for 3 h. The peptides of formula (I) used to target the capsules in this example are peptides of formula Pamitoyl-Ser-Tyr-Ser-Nle-Glu-His-DPhe-Arg-(AA₁)-Gly-Lys-DPro-Val-NH—(CH₂)₃—(OCH₂CH₂)₂—CH₂—NH₂ wherein the nature of the aminoacid in position 9 (AA₁) is indicated in the first column of table 3. Cells were washed and stained with receptor-specific antibody or isotype control antibody to specifically detect distinct types of cells. Subsequently, cells were analyzed by flow cytometry on a FacsCalibur. The cell associated fluorescence was calculated by dividing the mean cell fluorescence intensity (mfi) for a given sample by the mfi of melanocytes incubated with targeted capsules, which was set at 100% (see FIG. 5 and table 4).

Binder	Cell specific binding (%)
B6	75
B7	73
B8	74
B9	58
B10	85
B11	80
B12	71
B13	80

From patent US20160250128A1 (INFINITEC ACTIVOS S L, published 2016)
